Results from the supplement of paper PMC10567573.

B1: FAM50A (parent)
chain: HIFPASRWEPYDPEKKWDKYTIR
B2: SASS6 (parent)
chain: QKELQDVGQSLRIKEQEVCKLQEQ

Variants of: B1
Test: protein stability index of a GFP-peptide fusion (GPS, HEK-293T) (PSI 1-6); higher = more stable
Settings: c terminus: native
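Further: lentivirally expressed fusions sorted by FACS into six bins by GFP to DsRed ratio, PSI derived from sequencing read proportions per bin multiplied by bin number.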

Protein stability index: each site, then its substitutions
Y20: V 2.28
I22: M 2.05
E14: H 1.76
Y11: P 2.71
K19: A 2.18
E9: T 1.87
R7: E 3.47 | C 1.85
R23: V 2.27
W17: R 2.68

Variants of: B2
Test: as above
Settings: c terminus: a fixed tail appended

Protein stability index of substitutions, site by site:
S10: T 5.48 | A 5 | D 3.74 | K 5.1 | G 4.74 | L 5 | P 4.37 | F 4.91 | C 4.12 | M 5.33 | Y 4.32 | H 4.89 | Q 5.31 | W 2.66 | V 3.9 | I 3.83 | E 5.72
E17: A 4.66 | I 4.28 | T 4.95 | Y 4.22 | R 4.54 | N 4.33 | L 4.77 | S 4.97 | M 4.71 | H 5.02 | D 5.55 | P 4.55 | K 5.25 | C 4.56 | G 4.96 | Q 4.62
V18: P 3.51 | N 5.19 | G 4.49 | H 5.11 | S 5.35 | F 4.5 | K 5.32 | W 4.28 | L 5.25 | Q 5.54 | D 5.94 | E 5.95 | Y 5.03 | R 5.62 | I 4.75 | M 5.46 | T 4.74 | A 4.16
Q24: Y 4.57 | V 4.92 | G 5.12 | K 5.27 | I 4.7 | W 4.84 | S 4.43 | H 4.95 | C 5 | A 5.21 | L 5.16 | E 5.77 | M 5.05 | T 5.35 | F 4.44 | D 5.04 | P 5.58 | N 5.39
I13: L 5.57 | K 5.29 | N 5.31 | D 5.72 | T 5.13 | E 5.34 | A 4.69 | F 4.85 | Y 4.95 | M 5.64 | H 4.64 | V 5.44 | C 3.3 | P 5.38 | W 4.57 | S 5.45 | R 5.7
Q5: Y 4.32 | W 4.79 | V 5.13
L11: E 5.84 | C 5.09 | K 5.12 | I 5.39 | Y 5.21 | W 5.11 | D 5.75 | Q 5.54 | P 5.37 | V 5.39 | H 5.36 | S 5.47 | N 5.77 | F 5.26 | M 5.6 | G 5.88 | A 5.25 | T 5.67
R12: S 5.34 | G 5.6 | I 5.14 | K 5.55 | Q 5.75 | C 4.81 | W 4.84 | E 5.71 | D 4.03 | F 5.02 | Y 5.28 | A 5.34 | L 5.33 | H 5.41 | T 3.75 | N 5.19 | P 5.39
E15: I 2.8 | M 4.54 | G 5.1 | L 4.15 | R 4.21 | F 3.24 | P 4.66 | K 3.7 | N 3.15 | Q 4.66 | H 4.49 | T 4.56 | W 2.06 | D 5 | A 5.01 | V 3.54 | C 4.11 | S 4.85
C19: K 4.88 | D 5.56 | R 5.23 | F 5.35 | Q 5.61 | P 4.9 | V 5.25 | W 4.59 | T 5.31 | A 4.79 | M 5.34 | H 5.61 | I 4.35 | S 5.53 | E 5.78 | Y 5.19
K14: V 4.94 | P 4.73 | T 5.75 | N 4.6 | F 4.38 | R 5.19 | G 5.46 | S 5.33 | I 4.43 | A 5.04 | H 4.78 | E 5.49 | M 4.47 | Y 4.68 | D 5.63 | Q 4.9 | C 5.54
E23: V 4.51 | R 4.76 | T 4.99 | D 5.27 | P 4.49 | Q 4.71 | M 4.24 | Y 4.12 | S 4.82 | K 4.89 | I 4.4 | C 4.29 | L 4.69 | F 4.52 | H 5.02 | G 5.58 | N 4.5
K20: C 5.11 | M 5.24 | V 5.26 | R 4.82 | F 4.31 | S 5.55 | L 5.02 | G 5.36 | I 5.15 | H 4.49 | Y 4.66 | P 4.98 | T 5.09 | N 5.12
V7: H 4.72 | K 5.16 | G 5.41 | D 5.71 | T 5.68 | A 5.19 | R 5.39 | Y 5.18 | F 4.73 | Q 5.82 | C 3.36 | M 3.42 | N 4.92 | L 5.14 | W 4.64 | I 5.05 | S 5.76 | E 5.11 | P 4.8
Q16: K 5.48 | H 5.13 | A 5.12 | C 4.99 | G 5.83 | Y 4.68 | V 5.21 | I 4.84 | N 5.13 | L 4.71 | E 5.63 | M 4.96 | S 5.56 | T 5.28 | D 5.43 | W 4.66
D6: V 4.46 | Y 4.58 | G 5 | N 4.9 | M 5.02 | H 4.62 | A 5.17 | K 5.23 | E 5.05 | Q 5.31 | S 4.91 | P 5.26 | L 4.14 | T 4.74 | F 3.81
Q9: E 4.49 | K 5.3 | P 5.56 | H 5.05 | Y 4.87 | G 5.02 | F 4.13 | T 5.23 | S 4.47 | R 5.1 | M 4.67 | I 4.97 | D 5.71 | C 4.76 | N 5.67 | L 4.84 | A 5.52
G8: K 5.2 | W 3.84 | R 5.48 | C 4.92 | T 5.13 | N 5.12 | I 4 | P 4.75 | F 4.07 | E 5.38 | S 5 | Y 4.18 | H 5 | D 5.26 | V 4.69 | M 4.98 | L 3.83 | A 3.61
Q22: P 5.27 | V 4.4 | M 4.88 | D 5.58 | K 5.25 | W 4.83 | T 5.06 | R 5.07 | L 4.44 | F 4.5 | C 4.34 | E 5.4 | H 4.79 | I 4.69 | N 5.11 | Y 4.67
L21: D 5.84 | C 5.73 | G 5.9 | H 5.57 | Y 5.38 | P 5.4 | M 5.03 | I 5.43 | Q 5.42 | W 4.92 | K 5.81 | F 5.14 | S 5.27 | E 5.78 | T 5.68 | N 5.68 | A 5.02
